These results are taken from patent US20090117091A1 (BIOMARIN PHARMACEUTICAL, published 2009).

As a reminder, the Kd is the concentration at which binding is half-saturated. The low end stands for tighter binding, the high end for weaker binding.

This assay concerns the target GILT-tagged GAA ZC-701 (human, UniProt P10253 70-952). The experiment in a line: SPR (Biacore 3000); biotinylated CI-MPR Dom10-13 on SA chip, analyte in solution, steady-state affinity fit, I1572T mutant surface as reference. A general note: In SPR one partner is held on a chip, and binding of the other changes the refractive index at the surface.

Description: Following docking of the SA sensor chip, the SA chip was washed two times with deionized water. The flow cells to be coupled were conditioned by injecting 60 ml of a buffer containing 50 mM NaOH/1 M NaCl at a flow rate of 20 ml/min. The chip was washed with H2O as described above. The chip was then washed with coupling buffer (10 mM HEPES pH 7.4/100 mM NaCl) as described above. […] Flow cells (FC) 1 & 2 were coupled at a higher density than FC 3 & 4. FC1 and FC3 were immobilized with the mutant Dom 10-13 construct and were used as the reference surface (i.e., the response obtained from FC1 was subtracted from FC2; the response obtained from FC3 was subtracted from FC4). FC2 and FC4 were immobilized with the wild-type Dom10-13 construct. […] Following the 50 ml injection of coupling buffer containing the Dom10-13 constructs, the chip was washed with coupling buffer alone (10 ml injection at a flow rate of 10 ml/min). Remaining unbound streptavidin binding sites were saturated with biotin by two sequential 10 ml injections of biotin (10 mM) at a flow rate of 10 μl/min.
After coupling, the flow cells were equilibrated in running buffer (10 mM HEPES pH 7.0, 150 mM NaCl, and 0.005% (v/v) surfactant P20).

B1: biotinylated, His-tagged recombinant wild-type CI-MPR domains 10-13 (1288FS) (receptor)
chain: AGAPTGHHHHHHAPGLNDIFEAQKIEWHEPFDLTECSFKDGAGNSFDLSSLSRYSDNWEAITGTGDPEHYLINVCKSLAPQAGTEPCPPEAAACLLGGSKPVNLGRVRDGPQWRDGIIVLKYVDGDLCPDGIRKKSTTIRFTCSESQVNSRPMFISAVEDCEYTFAWPTATACPMKSNEHDDCQVTNPSTGHLFDLSSLSGRAGFTAAYSEKGLVYMSICGENENCPPGVGACFGQTRISVGKANKRLRYVDQVLQLVYKDGSPCPSKSGLSYKSVISFVCRPEAGPTNRPMLISLDKQTCTLFFSWHTPLACEQATECSVRNGSSIVDLSPLIHRTGGYEAYDESEDDASDTNPDFYINICQPLNPMHGVPCPAGAAVCKVPIDGPPIDIGRVAGPPILNPIANEIYLNFESSTPCLADKHFNYTSLIAFHCKRGVSMGTPKLLRTSECDFVFEWETPVVCPDEVRMDGCTLTDEQLLYSFNLSSLSTSTFKVTRDSRTYSVGVCTFAVGPEQGGCKDGGVCLLSGTKGASFGRLQSMKLDYRHQDEAVVLSYVNGDRCPPETDDGVPCVFPFIFNGKSYEECIIESRAKLWCSTTADYDRDHEWGFCRHSNSYRTSSIIFKCDEDEDIGRPQVFSEVRGCDVTFEWKTKVVCP
modifications: biotinylated with BirA enzyme in the Biotin AS domain
notes: The protein was immobilised on a streptavidin chip; also called p1288; HIS-BIOTIN-CI-MPR DOMAINS 10-13
For B1, the Kd was found to be 33 nM.
